Literature values as cited in article PMC4465451.

Molecular target: His5 (UniProt position 30, DRVYIHPFHLV)
Assay: mass spectrometry
Details: Free peptide, taken as fully solvent accessible

Substance: Angiotensin III
- pKa: 6.50
